Data published in publication PMC2711901 (Nature structural & molecular biology, 2009).

Target: T1, GST-Ubc9 (S. pombe, UniProt P40984 1-157)
T1 sequence (looked up): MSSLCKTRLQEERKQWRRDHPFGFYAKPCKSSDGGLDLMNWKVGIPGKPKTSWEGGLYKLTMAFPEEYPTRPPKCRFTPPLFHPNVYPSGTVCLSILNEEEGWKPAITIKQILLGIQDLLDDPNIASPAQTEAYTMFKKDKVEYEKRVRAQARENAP
Test: pull-down

B1: 6His-Rad60 SLD2 (domain or fragment, S. pombe, UniProt Q9USX3 332-406, looked up)
chain: KLITLLLRSSKSEDLRLSIPVDFTVKDLIKRYCTEVKISFHERIRLEFEGEWLDPNDQVQSTELEDEDQVSVVLD
binding result: binds
